Where two headings read alike, the source gives them in different places. The star is where a group is joined. MBP = 4-(maleimido)benzophenone, alkylating the Cys, O=C(c1ccccc1)c1ccc(N2C(=O)CC(*)C2=O)cc1; Biotin = O=C1N[C@H]2[C@H](CS[C@H]2CCCCC(=O)*)N1

This note sets out measurements from article PMC2896254 (Biopolymers, 2009).

What all share (assay): pull-down
Assay [1] addresses T1, Wild-type full-length Ffh carrying an N-terminal deca-His tag (E. coli, UniProt P0AGD7 1-453).
T1 sequence (looked up): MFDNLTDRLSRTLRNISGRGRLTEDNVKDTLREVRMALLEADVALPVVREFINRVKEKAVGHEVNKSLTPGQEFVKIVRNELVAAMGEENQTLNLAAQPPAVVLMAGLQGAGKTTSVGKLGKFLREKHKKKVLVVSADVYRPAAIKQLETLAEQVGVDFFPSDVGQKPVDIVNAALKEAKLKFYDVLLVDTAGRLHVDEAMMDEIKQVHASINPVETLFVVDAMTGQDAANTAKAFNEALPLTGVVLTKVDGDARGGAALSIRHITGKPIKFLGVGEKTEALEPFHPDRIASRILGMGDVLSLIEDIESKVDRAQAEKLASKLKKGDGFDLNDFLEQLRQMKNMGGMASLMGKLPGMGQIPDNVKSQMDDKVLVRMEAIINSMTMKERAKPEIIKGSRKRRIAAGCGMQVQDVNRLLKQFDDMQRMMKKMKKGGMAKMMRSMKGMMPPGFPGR

Assay [2] addresses T1, Wild-type full-length Ffh carrying an …. This is another data set of the same source.
Assay [3] addresses T2, His-tagged M domain of Ffh (M297 to R453) (E. coli, UniProt P0AGD7 297-453).
T2 sequence (looked up): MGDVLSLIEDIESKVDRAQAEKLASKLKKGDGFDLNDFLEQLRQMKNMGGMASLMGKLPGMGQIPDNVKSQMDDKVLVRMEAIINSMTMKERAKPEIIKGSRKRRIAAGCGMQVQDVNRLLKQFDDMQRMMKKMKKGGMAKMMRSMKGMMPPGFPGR

The target of assay [4] is T3, His-tagged NG domain of Ffh (residues M1 to V300) (E. coli, UniProt P0AGD7 1-300).
T3 sequence (looked up): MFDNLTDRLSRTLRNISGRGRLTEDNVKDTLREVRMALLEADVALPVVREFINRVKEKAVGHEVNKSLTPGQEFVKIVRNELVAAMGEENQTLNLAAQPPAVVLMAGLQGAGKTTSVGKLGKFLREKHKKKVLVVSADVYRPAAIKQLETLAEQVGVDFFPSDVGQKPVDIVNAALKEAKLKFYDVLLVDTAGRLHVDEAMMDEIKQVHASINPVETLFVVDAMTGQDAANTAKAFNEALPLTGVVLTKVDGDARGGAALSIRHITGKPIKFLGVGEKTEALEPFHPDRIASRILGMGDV

B1: BioPhoAC10 (peptide)
peptide: Biotin-MKQKKKLALCLLLLLLTPVTKA-NH2
SMILES: CSCC[C@H](NC(=O)CCCC[C@@H]1SC[C@@H]2NC(=O)N[C@@H]21)C(=O)N[C@@H](CCCCN)C(=O)N[C@@H](CCC(N)=O)C(=O)N[C@@H](CCCCN)C(=O)N[C@@H](CCCCN)C(=O)N[C@@H](CCCCN)C(=O)N[C@@H](CC(C)C)C(=O)N[C@@H](C)C(=O)N[C@@H](CC(C)C)C(=O)N[C@@H](CS)C(=O)N[C@@H](CC(C)C)C(=O)N[C@@H](CC(C)C)C(=O)N[C@@H](CC(C)C)C(=O)N[C@@H](CC(C)C)C(=O)N[C@@H](CC(C)C)C(=O)N[C@@H](CC(C)C)C(=O)N[C@H](C(=O)N1CCC[C@H]1C(=O)N[C@H](C(=O)N[C@H](C(=O)N[C@@H](CCCCN)C(=O)N[C@@H](C)C(N)=O)[C@@H](C)O)C(C)C)[C@@H](C)O
With B1, the binding result in assay [1] is listed as “binds”.

B2: BioPhoAC13 (peptide)
peptide: Biotin-MKQKKKLALLLLCLLLTPVTKA-NH2
SMILES: CSCC[C@H](NC(=O)CCCC[C@@H]1SC[C@@H]2NC(=O)N[C@@H]21)C(=O)N[C@@H](CCCCN)C(=O)N[C@@H](CCC(N)=O)C(=O)N[C@@H](CCCCN)C(=O)N[C@@H](CCCCN)C(=O)N[C@@H](CCCCN)C(=O)N[C@@H](CC(C)C)C(=O)N[C@@H](C)C(=O)N[C@@H](CC(C)C)C(=O)N[C@@H](CC(C)C)C(=O)N[C@@H](CC(C)C)C(=O)N[C@@H](CC(C)C)C(=O)N[C@@H](CS)C(=O)N[C@@H](CC(C)C)C(=O)N[C@@H](CC(C)C)C(=O)N[C@@H](CC(C)C)C(=O)N[C@H](C(=O)N1CCC[C@H]1C(=O)N[C@H](C(=O)N[C@H](C(=O)N[C@@H](CCCCN)C(=O)N[C@@H](C)C(N)=O)[C@@H](C)O)C(C)C)[C@@H](C)O
In the case of B2, in assay [2], the binding result is “binds”.

B3: BioPhoAC11-BP (peptide)
peptide: Biotin-MKQKKKLALLC(MBP)LLLLLTPVTKA-NH2
SMILES: CSCC[C@H](NC(=O)CCCC[C@@H]1SC[C@@H]2NC(=O)N[C@@H]21)C(=O)N[C@@H](CCCCN)C(=O)N[C@@H](CCC(N)=O)C(=O)N[C@@H](CCCCN)C(=O)N[C@@H](CCCCN)C(=O)N[C@@H](CCCCN)C(=O)N[C@@H](CC(C)C)C(=O)N[C@@H](C)C(=O)N[C@@H](CC(C)C)C(=O)N[C@@H](CC(C)C)C(=O)N[C@@H](CSC1CC(=O)N(c2ccc(C(=O)c3ccccc3)cc2)C1=O)C(=O)N[C@@H](CC(C)C)C(=O)N[C@@H](CC(C)C)C(=O)N[C@@H](CC(C)C)C(=O)N[C@@H](CC(C)C)C(=O)N[C@@H](CC(C)C)C(=O)N[C@H](C(=O)N1CCC[C@H]1C(=O)N[C@H](C(=O)N[C@H](C(=O)N[C@@H](CCCCN)C(=O)N[C@@H](C)C(N)=O)[C@@H](C)O)C(C)C)[C@@H](C)O
For B3, the binding result in assay [1] was “binds”.

B4: BioPhoAC12 (peptide)
peptide: Biotin-MKQKKKLALLLCLLLLTPVTKA-NH2
SMILES: CSCC[C@H](NC(=O)CCCC[C@@H]1SC[C@@H]2NC(=O)N[C@@H]21)C(=O)N[C@@H](CCCCN)C(=O)N[C@@H](CCC(N)=O)C(=O)N[C@@H](CCCCN)C(=O)N[C@@H](CCCCN)C(=O)N[C@@H](CCCCN)C(=O)N[C@@H](CC(C)C)C(=O)N[C@@H](C)C(=O)N[C@@H](CC(C)C)C(=O)N[C@@H](CC(C)C)C(=O)N[C@@H](CC(C)C)C(=O)N[C@@H](CS)C(=O)N[C@@H](CC(C)C)C(=O)N[C@@H](CC(C)C)C(=O)N[C@@H](CC(C)C)C(=O)N[C@@H](CC(C)C)C(=O)N[C@H](C(=O)N1CCC[C@H]1C(=O)N[C@H](C(=O)N[C@H](C(=O)N[C@@H](CCCCN)C(=O)N[C@@H](C)C(N)=O)[C@@H](C)O)C(C)C)[C@@H](C)O
In the case of B4, in assay [2], the binding result is given as “binds”.

B5: BioPhoAC11 (peptide)
peptide: Biotin-MKQKKKLALLCLLLLLTPVTKA-NH2
SMILES: CSCC[C@H](NC(=O)CCCC[C@@H]1SC[C@@H]2NC(=O)N[C@@H]21)C(=O)N[C@@H](CCCCN)C(=O)N[C@@H](CCC(N)=O)C(=O)N[C@@H](CCCCN)C(=O)N[C@@H](CCCCN)C(=O)N[C@@H](CCCCN)C(=O)N[C@@H](CC(C)C)C(=O)N[C@@H](C)C(=O)N[C@@H](CC(C)C)C(=O)N[C@@H](CC(C)C)C(=O)N[C@@H](CS)C(=O)N[C@@H](CC(C)C)C(=O)N[C@@H](CC(C)C)C(=O)N[C@@H](CC(C)C)C(=O)N[C@@H](CC(C)C)C(=O)N[C@@H](CC(C)C)C(=O)N[C@H](C(=O)N1CCC[C@H]1C(=O)N[C@H](C(=O)N[C@H](C(=O)N[C@@H](CCCCN)C(=O)N[C@@H](C)C(N)=O)[C@@H](C)O)C(C)C)[C@@H](C)O
As for B5, the binding result in assay [1], in assay [3] and in assay [4] was “binds” each time.

B6: BioPhoAC14 (peptide)
peptide: Biotin-MKQKKKLALLLLLCLLTPVTKA-NH2
SMILES: CSCC[C@H](NC(=O)CCCC[C@@H]1SC[C@@H]2NC(=O)N[C@@H]21)C(=O)N[C@@H](CCCCN)C(=O)N[C@@H](CCC(N)=O)C(=O)N[C@@H](CCCCN)C(=O)N[C@@H](CCCCN)C(=O)N[C@@H](CCCCN)C(=O)N[C@@H](CC(C)C)C(=O)N[C@@H](C)C(=O)N[C@@H](CC(C)C)C(=O)N[C@@H](CC(C)C)C(=O)N[C@@H](CC(C)C)C(=O)N[C@@H](CC(C)C)C(=O)N[C@@H](CC(C)C)C(=O)N[C@@H](CS)C(=O)N[C@@H](CC(C)C)C(=O)N[C@@H](CC(C)C)C(=O)N[C@H](C(=O)N1CCC[C@H]1C(=O)N[C@H](C(=O)N[C@H](C(=O)N[C@@H](CCCCN)C(=O)N[C@@H](C)C(N)=O)[C@@H](C)O)C(C)C)[C@@H](C)O
Consider B6, for which the binding result in assay [2] is recorded as “binds”.
